From patent publication US20220040297A1 (Chugai, published 2022)
Ends that are not written are not given here.

T1: biotin-labeled CD3ε peptide (also: biotin-labeled, site not given here)
T1 construct: also called CD3 peptide; biotinylated CD3ε peptide
T1 peptide: QDGNEEMGGITQTPY

T2: Cy CD3ε/g
T2 construct: also called cynomolgus monkey CD3εγ on Ba/F3 cells
T2 epsilon: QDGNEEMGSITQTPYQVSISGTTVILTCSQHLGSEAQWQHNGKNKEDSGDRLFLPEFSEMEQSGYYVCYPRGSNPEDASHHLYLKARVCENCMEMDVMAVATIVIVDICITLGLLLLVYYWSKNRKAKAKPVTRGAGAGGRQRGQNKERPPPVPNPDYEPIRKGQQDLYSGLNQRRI
T2 gamma: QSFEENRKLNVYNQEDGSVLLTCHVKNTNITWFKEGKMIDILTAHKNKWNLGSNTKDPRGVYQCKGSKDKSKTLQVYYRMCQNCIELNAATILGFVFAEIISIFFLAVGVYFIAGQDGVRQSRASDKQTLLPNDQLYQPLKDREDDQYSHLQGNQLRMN


Experiments:
CD3ε homodimer protein [1] = biological target: T3, CD3ε homodimer protein (human, UniProt P07766 23-126, limits assumed); test: SPR (Biacore T200, 25°C); CD3ε homodimer immobilized on CM4, one-arm antibody as analyte
T3 construct: also called human CD3ε homodimer protein; CD3e homodimer

CD3ε homodimer protein [2] = biological target: T3, CD3ε homodimer protein; test: SPR (Biacore T200, 25°C); CD3ε homodimer immobilized on CM4, one-arm antibody as analyte; first of two CE115HA340 lines (r6, 2.0E-08); the second line (r8) gives 2.7E-08
[3] = biological target: T4, human IgA-Fc with AviTag, biotinylated (human, UniProt P01876 123-333, limits assumed, biotinylated at the C-terminal AviTag sequence); test: ECL; biotinylated hIgA, ratio to the no-antigen well
T4 construct: also called hIgA; biotinylated human IgA

[4] = biological target: T4, human IgA-Fc with AviTag, biotinylated; test: as above; remark: listed apart in the source
[5] = biological target: T1, biotin-labeled CD3ε peptide; test: ECL; CD3 peptide as antigen, ratio to the no-antigen well
[6] = biological target: T5, integrin αvβ3 (R&D Systems, Inc.) (human, UniProt P06756 31-992; P05106 27-718); test: ECL; integrin αvβ3 on plate, ratio to the integrin-free well
[7] = biological target: T4, human IgA-Fc with AviTag, biotinylated; test: ECL; hIgA value without against with integrin αvβ3 (competitor)
[8] = biological target: T4, human IgA-Fc with AviTag, biotinylated; test: ECL; hIgA signal without against with CD3ε homodimer protein (competitor)
[9] = biological target: T5, integrin αvβ3 (R&D Systems, Inc.); test: ECL; integrin αvβ3 value without against with CD3ε homodimer protein (competitor)
[10] = biological target: T4, human IgA-Fc with AviTag, biotinylated; test: ECL; biotinylated hIgA with integrin αvβ3 (competitor), ratio to the no-antigen well
[11] = biological target: T4, human IgA-Fc with AviTag, biotinylated; test: ECL; biotinylated hIgA with CD3ε homodimer protein (competitor), ratio to the no-antigen well
[12] = biological target: T5, integrin αvβ3 (R&D Systems, Inc.); test: ECL; integrin αvβ3 on plate with CD3ε homodimer protein (competitor), ratio to the integrin-free well
hCD3ε/g = biological target: T6, hCD3ε/g; test: cell-ELISA on Ba/F3 cells expressing human CD3εγ, hybridoma culture supernatant (CM)
T6 construct: also called human CD3εγ on Ba/F3 cells

Cy CD3ε/g = biological target: T2, Cy CD3ε/g; test: cell-ELISA on Ba/F3 cells expressing cynomolgus monkey CD3εγ, hybridoma culture supernatant (CM)

| Binder | Kd (CD3ε homodimer protein [1]) | Kd (CD3ε homodimer protein [2]) | Value as compared with antigen-free well [3] | Value as compared with antigen-free well [4] | Value as compared with antigen-free well [5] | Value as compared with integrin αvβ3-free well [6] | Amount of binding to hIgA attenuated by integrin αvβ3 [7] | Amount of binding to hIgA attenuated by CD3 [8] | Amount of binding to integrin αvβ3 attenuated by CD3 [9] | Value as compared with antigen-free well [10] | Value as compared with antigen-free well [11] | Value as compared with integrin αvβ3-free well [12] | binding result (hCD3ε/g) | binding result (Cy CD3ε/g) |
| --- | --- | --- | --- | --- | --- | --- | --- | --- | --- | --- | --- | --- | --- | --- |
| CE115HA340 / GLS3000 one-arm antibody (antibody, human IgG1, kappa, L234A L235A, N297A, one-arm antibody) heavy: QVQLVESGGGLVQPGRSLRLSCAASGFTFSNAWMHWVRQAPGKGLEWVAQIKDKSNNYATYYAESVKGRFTISRDDSKNSIYLQMNSLKTEDTAVYYCRYVHYAAYYGVDAWGQGTTVTVSSASTKGPSVFPLAPSSKSTSGGTAALGCLVKDYFPEPVTVSWNSGALTSGVHTFPAVLQSSGLYSLSSVVTVPSSSLGTQTYICNVNHKPSNTKVDKKVEPKSCDKTHTCPPCPAPEAAGGPSVFLFPPKPKDTLMISRTPEVTCVVVDVSHEDPEVKFNWYVDGVEVHNAKTKPREEQYASTYRVVSVLTVLHQDWLNGKEYKCKVSNKALPAPIEKTISKAKGQPREPQVYTLPPSRCELTKNQVSLSCAVKGFYPSDIAVEWESNGQPENNYKTTPPVLDSDGSFFLVSKLTVDKSRWQQGNVFSCSVMHEALHNHYTQKSLSLSPDYKDDDDK EPKSSDKTHTCPPCPAPELLGGPSVFLFPPKPKDTLMISRTPEVTCVVVDVSHEDPEVKFNWYVDGVEVHNAKTKPREEQYNSTYRVVSVLTVLHQDWLNGKEYKCKVSNKALPAPIEKTISKAKGQPREPQVCTLPPSRDELTKNQVSLWCLVKGFYPSDIAVEWESNGQPENNYKTTPPVLDSDGSFFLYSKLTVDKSRWQQGNVFSCSVMHEALHNRYTQKSLSLSP light: DIVMTQSPLSLPVTPGEPASISCRSSQSLVHSNRNTYLHWYQQKPGQAPRLLIYKVSNRFSGVPDRFSGSGSGTDFTLKISRVEAEDVGVYYCGQGTQVPYTFGQGTKLEIKRTVAAPSVFIFPPSDEQLKSGTASVVCLLNNFYPREAKVQWKVDNALQSGNSQESVTEQDSKDSTYSLSSTLTLSKADYEKHKVYACEVTHQGLSSPVTKSFNRGEC | 27 nM | 20 nM | – | – | – | – | – | – | – | – | – | – | – | – |
| CE#115 (antibody, V domains shown, also called CE115, rat hybridoma culture supernatant) VH: EVQLVETGGSLVQPGKSLKLTCATSGFTFSNAWMHWVRQSPEKQLEWVAQIKAKSNNYATYYAESVKGRFTISRDDSKSNIYLQMNSLKEEDTAVYYCRYVHYGAYYGVDAWGQGTSVTVSS VL: DVVMTQTPVSMSVSLGGQVSISCRSSQSLVHNNGNTYVSWYIQKPSQSPQLLIYKVSNRFSGISDRFSGSGSGTDFTLKISRVEPDDLGVYYCGQGTQDPYTFGAGTKLELK | – | – | – | – | – | – | – | – | – | – | – | – | binds | binds |

Second part, the binder after the results:

| Kd (CD3ε homodimer protein [1]) | Kd (CD3ε homodimer protein [2]) | Value as compared with antigen-free well [3] | Value as compared with antigen-free well [4] | Value as compared with antigen-free well [5] | Value as compared with integrin αvβ3-free well [6] | Amount of binding to hIgA attenuated by integrin αvβ3 [7] | Amount of binding to hIgA attenuated by CD3 [8] | Amount of binding to integrin αvβ3 attenuated by CD3 [9] | Value as compared with antigen-free well [10] | Value as compared with antigen-free well [11] | Value as compared with integrin αvβ3-free well [12] | binding result (hCD3ε/g) | binding result (Cy CD3ε/g) | Binder |
| --- | --- | --- | --- | --- | --- | --- | --- | --- | --- | --- | --- | --- | --- | --- |
| – | – | 8 fold | 3.9 fold | 1410 fold | 438 fold | 2.5 fold | 7.4 fold | 2.4 fold | 1.6 fold | 1 fold | 185 fold | – | – | IGAR6(2)B02H1 (antibody, human IgG1, kappa, L234A L235A, N297A, One-arm antibody) heavy: QVQLVESGGGLVQPGRSLRLSCAASGFTFSNAWMHWVRQAPGKGLEWVAQIKDKGQQYAAYYAPSVKGRFTISRDGCRGDCLDSKNSIYLQMNSLKTEDTAVYYCRYVHYQTYSDGSFYFGVDAWGQGTTVTVSSASTKGPSVFPLAPSSKSTSGGTAALGCLVKDYFPEPVTVSWNSGALTSGVHTFPAVLQSSGLYSLSSVVTVPSSSLGTQTYICNVNHKPSNTKVDKKVEPKSCDKTHTCPPCPAPEAAGGPSVFLFPPKPKDTLMISRTPEVTCVVVDVSHEDPEVKFNWYVDGVEVHNAKTKPREEQYASTYRVVSVLTVLHQDWLNGKEYKCKVSNKALPAPIEKTISKAKGQPREPQVYTLPPSRCELTKNQVSLSCAVKGFYPSDIAVEWESNGQPENNYKTTPPVLDSDGSFFLVSKLTVDKSRWQQGNVFSCSVMHEALHNHYTQKSLSLSPDYKDDDDK EPKSSDKTHTCPPCPAPELLGGPSVFLFPPKPKDTLMISRTPEVTCVVVDVSHEDPEVKFNWYVDGVEVHNAKTKPREEQYNSTYRVVSVLTVLHQDWLNGKEYKCKVSNKALPAPIEKTISKAKGQPREPQVCTLPPSRDELTKNQVSLWCLVKGFYPSDIAVEWESNGQPENNYKTTPPVLDSDGSFFLYSKLTVDKSRWQQGNVFSCSVMHEALHNRYTQKSLSLSP light: DIVMTQSPLSLPVTPGEPASISCRSSQSLVHSNRNTYLHWYQQKPGQAPRLLIYKVSNRFSGVPDRFSGSGSGTDFTLKISRVEAEDVGVYYCGQGTQVPYTFGQGTKLEIKRTVAAPSVFIFPPSDEQLKSGTASVVCLLNNFYPREAKVQWKVDNALQSGNSQESVTEQDSKDSTYSLSSTLTLSKADYEKHKVYACEVTHQGLSSPVTKSFNRGEC |
| – | – | 20 fold | 15.6 fold | 910 fold | 0.8 fold | 1 fold | 23.4 fold | 1 fold | 15.9 fold | 1 fold | 0.8 fold | – | – | IGAR6(2)B02 (antibody, human IgG1, kappa, L234A L235A, N297A, One-arm antibody; also called IGA6 (2) B02; IGAR6(2)B02#1) heavy: QVQLVESGGGLVQPGRSLRLSCAASGFTFSNAWMHWVRQAPGKGLEWVAQIKDKGQQYAAYYAPSVKGRFTISRDDSKNSIYLQMNSLKTEDTAVYYCRYVHYQTYSDGSFYFGVDAWGQGTTVTVSSASTKGPSVFPLAPSSKSTSGGTAALGCLVKDYFPEPVTVSWNSGALTSGVHTFPAVLQSSGLYSLSSVVTVPSSSLGTQTYICNVNHKPSNTKVDKKVEPKSCDKTHTCPPCPAPEAAGGPSVFLFPPKPKDTLMISRTPEVTCVVVDVSHEDPEVKFNWYVDGVEVHNAKTKPREEQYASTYRVVSVLTVLHQDWLNGKEYKCKVSNKALPAPIEKTISKAKGQPREPQVYTLPPSRCELTKNQVSLSCAVKGFYPSDIAVEWESNGQPENNYKTTPPVLDSDGSFFLVSKLTVDKSRWQQGNVFSCSVMHEALHNHYTQKSLSLSPDYKDDDDK EPKSSDKTHTCPPCPAPELLGGPSVFLFPPKPKDTLMISRTPEVTCVVVDVSHEDPEVKFNWYVDGVEVHNAKTKPREEQYNSTYRVVSVLTVLHQDWLNGKEYKCKVSNKALPAPIEKTISKAKGQPREPQVCTLPPSRDELTKNQVSLWCLVKGFYPSDIAVEWESNGQPENNYKTTPPVLDSDGSFFLYSKLTVDKSRWQQGNVFSCSVMHEALHNRYTQKSLSLSP light: DIVMTQSPLSLPVTPGEPASISCRSSQSLVHSNRNTYLHWYQQKPGQAPRLLIYKVSNRFSGVPDRFSGSGSGTDFTLKISRVEAEDVGVYYCGQGTQVPYTFGQGTKLEIKRTVAAPSVFIFPPSDEQLKSGTASVVCLLNNFYPREAKVQWKVDNALQSGNSQESVTEQDSKDSTYSLSSTLTLSKADYEKHKVYACEVTHQGLSSPVTKSFNRGEC |
